In publication PMC5792622 (Nature Communications, 2018):

Target: the molecule itself
Experiment: crystal structure

B1: hexon protein of HAdV5^HVR7 (human adenovirus type 5 with four mutations in hypervariable region 7 of the hexon) (natural protein)
chain: MATPSMMPQWSYMHISGQDASEYLSPGLVQFARATETYFSLNNKFRNPTVAPTHDVTTDRSQRLTLRFIPVDREDTAYSYKARFTLAVGDNRVLDMASTYFDIRGVLDRGPTFKPYSGTAYNALAPKGAPNPCEWDEAATALEINLEEEDDDNEDEVDEQAEQQKTHVFGQAPYSGINITKEGIQIGVEGQTPKYADKTFQPEPQIGESQWYETEINHAAGRVLKKTTPMKPCYGSYAKPTNENGGQGILVKQQNGKLESQVEMQFFSTTEATAGNGDNLTPKVVLYSEDVDIETPDTHISYMPTIKEGNSRELMGQQSMPNRPNYIAFRDNFIGLMYYNSTGNMGVLAGQASQLNAVVDLQDRNTELSYQLLLDSIGDRTRYFSMWNQAVDSYDPDVRIIENHGTEDELPNYCFPLGGVGNNSTYTKVKPKTGQENGWEKDATEFSDKNEIRVGNNFAMEINLNANLWRNFLYSNIALYLPDKLKYSPSNVKISDNPNTYDYMNKRVVAPGLVDCYINLGARWSLDYMDNVNPFNHHRNAGLRYRSMLLGNGRYVPFHIQVPQKFFAIKNLLLLPGSYTYEWNFRKDVNMVLQSSLGNDLRVDGASIKFDSICLYATFFPMAHNTASTLEAMLRNDTNDQSFNDYLSAANMLYPIPANATNVPISIPSRNWAAFRGWAFTRLKTKETPSLGSGYDPYYTYSGSIPYLDGTFYLNHTFKKVAITFDSSVSWPGNDRLLTPNEFEIKRSVDGEGYNVAQCNMTKDWFLVQMLANYNIGYQGFYIPESYKDRMYSFFRNFQPMSRQVVDDTKYKDYQQVGILHQHNNSGFVGYLAPTMREGQAYPANFPYPLIGKTAVDSITQKKFLCDRTLWRIPFSSNFMSMGALTDLGQNLLYANSAHALDMTFEVDPMDEPTLLYVLFEVFDVVRVHRPHRGVIETVYLRTPFSAGNATT
modifications: biotin (NHS-biotin), for the SPR only
notes: also called HAdV5^HVR7 hexon
With B1 the “stoichiometry N” value was 3.
